B1: CLDN7, O95471 (peptide)
chain: PKSNSSKEYV
B2: TYRP1, P17643 (peptide)
chain: KLQNPNQSVV
B3: CCL24, O00175 (peptide)
chain: QRYPGNQTTC

What was measured:
Test in all cases: holdup assay
Design in all cases: key: below the threshold = too weak to quantify, mostly under pKd 3.1 to 4
Settings in all cases: plain residues with an end cap or a label only (N-terminal biotin on a linker: ado-ado)
GRID2IP_1, A4D2P6 = molecular target: GRID2IP_1, A4D2P6
MAGI2_2, Q86UL8 = molecular target: MAGI2_2, Q86UL8
PCLO, Q9Y6V0 = molecular target: T1, PCLO, Q9Y6V0
T1 sequence (Q9Y6V0 4491-4600, limits assumed, looked up): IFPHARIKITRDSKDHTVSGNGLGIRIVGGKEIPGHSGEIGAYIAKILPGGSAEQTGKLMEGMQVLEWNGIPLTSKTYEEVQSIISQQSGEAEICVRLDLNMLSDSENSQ

LNX1_1, Q8TBB1 = molecular target: LNX1_1, Q8TBB1
PTPN13_1, Q12923 = molecular target: T2, PTPN13_1, Q12923
T2 sequence (Q12923 1088-1188, limits assumed, looked up): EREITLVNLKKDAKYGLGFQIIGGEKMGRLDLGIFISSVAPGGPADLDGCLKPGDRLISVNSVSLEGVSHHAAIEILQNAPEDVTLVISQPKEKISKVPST

GRASP, Q7Z6J2 = molecular target: GRASP, Q7Z6J2
Inadl_9, Q8NI35 = molecular target: Inadl_9, Q8NI35
MAGI2_6, Q86UL8 = molecular target: MAGI2_6, Q86UL8
MPDZ_12, O75970 = molecular target: T3, MPDZ_12, O75970
T3 sequence (O75970 1857-1958, limits assumed, looked up): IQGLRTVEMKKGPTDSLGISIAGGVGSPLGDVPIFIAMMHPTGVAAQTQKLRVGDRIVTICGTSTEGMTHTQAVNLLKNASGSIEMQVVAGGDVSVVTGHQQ

NHERF4_4, Q86UT5 = molecular target: NHERF4_4, Q86UT5
ARHGEF12, Q9NZN5-2 = molecular target: ARHGEF12, Q9NZN5-2
DLG3_1, Q92796 = molecular target: T4, DLG3_1, Q92796
T4 sequence (Q92796 125-227, limits assumed, looked up): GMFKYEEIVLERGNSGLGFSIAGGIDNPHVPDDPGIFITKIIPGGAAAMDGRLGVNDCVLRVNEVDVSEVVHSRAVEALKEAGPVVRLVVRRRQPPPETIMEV

DLG3_3, Q92796 = molecular target: T5, DLG3_3, Q92796
T5 sequence (Q92796 374-475, limits assumed, looked up): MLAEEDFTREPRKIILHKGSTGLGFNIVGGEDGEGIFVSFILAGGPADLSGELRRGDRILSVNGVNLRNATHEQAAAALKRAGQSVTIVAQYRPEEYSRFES

TX1BP3, O14907 = molecular target: T6, TX1BP3, O14907
T6 sequence (O14907 10-122, limits assumed, looked up): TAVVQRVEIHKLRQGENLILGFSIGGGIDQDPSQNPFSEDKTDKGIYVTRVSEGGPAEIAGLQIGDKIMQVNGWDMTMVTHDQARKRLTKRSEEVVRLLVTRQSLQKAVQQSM

DVL3, Q92997 = molecular target: T7, DVL3, Q92997
T7 sequence (Q92997 244-331, limits assumed, looked up): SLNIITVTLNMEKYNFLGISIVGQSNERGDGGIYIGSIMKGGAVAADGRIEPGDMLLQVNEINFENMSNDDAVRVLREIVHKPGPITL

SHANK1, Q9Y566 = molecular target: T8, SHANK1, Q9Y566
T8 sequence (Q9Y566 658-767, limits assumed, looked up): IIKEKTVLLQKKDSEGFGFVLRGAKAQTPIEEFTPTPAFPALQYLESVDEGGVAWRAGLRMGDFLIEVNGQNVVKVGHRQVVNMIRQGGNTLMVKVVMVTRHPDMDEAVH

FRMPD2_1, Q68DX3 = molecular target: FRMPD2_1, Q68DX3
DLG1_2, Q12959 = molecular target: DLG1_2, Q12959
Inadl_5, Q8NI35 = molecular target: Inadl_5, Q8NI35
Inadl_10, Q8NI35 = molecular target: Inadl_10, Q8NI35
LIN7A, O14910 = molecular target: T9, LIN7A, O14910
T9 sequence (O14910 103-200, limits assumed, looked up): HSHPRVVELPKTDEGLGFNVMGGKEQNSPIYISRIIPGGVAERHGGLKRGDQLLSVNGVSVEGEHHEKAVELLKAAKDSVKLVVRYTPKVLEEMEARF

LIN7B, Q9HAP6 = molecular target: T10, LIN7B, Q9HAP6
T10 sequence (Q9HAP6 88-185, limits assumed, looked up): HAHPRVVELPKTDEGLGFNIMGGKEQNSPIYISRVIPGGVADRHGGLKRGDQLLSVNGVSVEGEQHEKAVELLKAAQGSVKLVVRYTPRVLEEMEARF

Inadl_1, Q8NI35 = molecular target: Inadl_1, Q8NI35
DLG5_1, Q8TDM6 = molecular target: DLG5_1, Q8TDM6
GORASP2, Q9H8Y8 = molecular target: GORASP2, Q9H8Y8
GOPC, Q9HD26 = molecular target: GOPC, Q9HD26
NHERF2_2, Q15599 = molecular target: NHERF2_2, Q15599
MAST2, Q6P0Q8 = molecular target: MAST2, Q6P0Q8
Sequence of MAST2, Q6P0Q8 (Q6P0Q8 1099-1202): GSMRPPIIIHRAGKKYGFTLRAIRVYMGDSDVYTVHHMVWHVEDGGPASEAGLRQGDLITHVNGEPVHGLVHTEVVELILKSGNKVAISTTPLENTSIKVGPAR

Sequence of GRASP, Q7Z6J2 (Q7Z6J2 96-193): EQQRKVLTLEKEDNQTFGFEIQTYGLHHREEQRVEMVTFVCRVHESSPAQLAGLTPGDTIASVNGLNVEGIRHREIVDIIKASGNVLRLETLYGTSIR
Sequence of NHERF2_2, Q15599 (Q15599 142-238): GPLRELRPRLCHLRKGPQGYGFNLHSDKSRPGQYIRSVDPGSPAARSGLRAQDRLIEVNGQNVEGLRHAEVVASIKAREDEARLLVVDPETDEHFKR
Sequence of DLG1_2, Q12959 (Q12959 314-412): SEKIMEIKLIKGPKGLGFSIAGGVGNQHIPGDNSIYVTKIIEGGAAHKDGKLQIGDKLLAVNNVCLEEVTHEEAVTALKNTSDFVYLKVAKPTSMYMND
Sequence of DLG5_1, Q8TDM6 (Q8TDM6 617-713): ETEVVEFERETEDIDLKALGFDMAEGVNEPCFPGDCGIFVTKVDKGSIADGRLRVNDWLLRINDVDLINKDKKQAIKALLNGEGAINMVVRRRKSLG
Sequence of NHERF4_4, Q86UT5 (Q86UT5 464-550): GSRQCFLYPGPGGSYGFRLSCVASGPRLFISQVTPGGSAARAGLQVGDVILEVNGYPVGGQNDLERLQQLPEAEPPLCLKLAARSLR
Sequence of FRMPD2_1, Q68DX3 (Q68DX3 770-861): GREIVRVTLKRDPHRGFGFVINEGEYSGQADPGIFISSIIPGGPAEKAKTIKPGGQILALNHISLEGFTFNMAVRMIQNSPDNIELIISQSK
Sequence of Inadl_10, Q8NI35 (Q8NI35 1673-1763): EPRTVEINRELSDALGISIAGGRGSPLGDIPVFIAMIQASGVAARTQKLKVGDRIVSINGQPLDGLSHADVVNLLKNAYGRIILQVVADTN
Sequence of Inadl_9, Q8NI35 (Q8NI35 1530-1615): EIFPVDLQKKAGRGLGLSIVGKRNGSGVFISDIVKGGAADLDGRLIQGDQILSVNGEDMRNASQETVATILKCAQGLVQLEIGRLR
Sequence of GRID2IP_1, A4D2P6 (A4D2P6 1-87): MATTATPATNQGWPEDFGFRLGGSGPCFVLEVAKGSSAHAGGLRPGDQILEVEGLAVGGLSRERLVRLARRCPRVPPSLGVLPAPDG
Sequence of MAGI2_6, Q86UL8 (Q86UL8 1141-1229): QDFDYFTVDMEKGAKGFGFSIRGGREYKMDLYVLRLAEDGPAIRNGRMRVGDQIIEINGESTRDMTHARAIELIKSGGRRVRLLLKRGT
Sequence of Inadl_1, Q8NI35 (Q8NI35 113-229): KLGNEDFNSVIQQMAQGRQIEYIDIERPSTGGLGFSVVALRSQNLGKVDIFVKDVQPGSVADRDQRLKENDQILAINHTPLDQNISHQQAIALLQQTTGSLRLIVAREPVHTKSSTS
Sequence of MAGI2_2, Q86UL8 (Q86UL8 410-522): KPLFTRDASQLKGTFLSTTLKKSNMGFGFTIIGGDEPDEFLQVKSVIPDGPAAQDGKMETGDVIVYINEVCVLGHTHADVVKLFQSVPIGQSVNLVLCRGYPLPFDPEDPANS
Sequence of ARHGEF12, Q9NZN5-2 (Q9NZN5 other isoform, or with tags, fused parts or gaps): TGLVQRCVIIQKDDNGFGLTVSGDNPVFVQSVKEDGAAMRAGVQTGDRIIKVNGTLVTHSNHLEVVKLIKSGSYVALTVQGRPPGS
Sequence of Inadl_5, Q8NI35 (Q8NI35 673-780): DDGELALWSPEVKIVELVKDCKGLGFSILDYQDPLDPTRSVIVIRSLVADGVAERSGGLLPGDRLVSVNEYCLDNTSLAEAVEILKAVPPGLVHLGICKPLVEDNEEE
Sequence of LNX1_1, Q8TBB1 (Q8TBB1 261-371): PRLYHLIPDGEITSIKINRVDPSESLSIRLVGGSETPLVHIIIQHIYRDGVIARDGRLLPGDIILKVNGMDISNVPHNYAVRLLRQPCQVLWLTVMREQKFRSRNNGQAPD

Row | Binder | pKd (GRID2IP_1, A4D2P6) | pKd (MAGI2_2, Q86UL8) | pKd (PCLO, Q9Y6V0) | pKd (LNX1_1, Q8TBB1) | pKd (PTPN13_1, Q12923) | pKd (GRASP, Q7Z6J2) | pKd (Inadl_9, Q8NI35) | pKd (MAGI2_6, Q86UL8) | pKd (MPDZ_12, O75970) | pKd (NHERF4_4, Q86UT5) | pKd (ARHGEF12, Q9NZN5-2) | pKd (DLG3_1, Q92796) | pKd (DLG3_3, Q92796) | pKd (TX1BP3, O14907) | pKd (DVL3, Q92997) | pKd (SHANK1, Q9Y566) | pKd (FRMPD2_1, Q68DX3) | pKd (DLG1_2, Q12959) | pKd (Inadl_5, Q8NI35) | pKd (Inadl_10, Q8NI35) | other results
1 | B1 | below the threshold | below the threshold | below the threshold | below the threshold | below the threshold | below the threshold | 3.71 | below the threshold | below the threshold | below the threshold | below the threshold | below the threshold | below the threshold | below the threshold | below the threshold | below the threshold | below the threshold | below the threshold | below the threshold | below the threshold | pKd (LIN7A, O14910): below the threshold; pKd (LIN7B, Q9HAP6): below the threshold; pKd (Inadl_1, Q8NI35): below the threshold; pKd (DLG5_1, Q8TDM6): below the threshold; pKd (GORASP2, Q9H8Y8): 3.6; pKd (GOPC, Q9HD26): 3.7; pKd (NHERF2_2, Q15599): below the threshold; pKd (MAST2, Q6P0Q8): 3.65
2 | B2 | below the threshold | 4 | below the threshold | 3.86 | below the threshold | 4 | below the threshold | below the threshold | below the threshold | below the threshold | 3.92 | below the threshold | below the threshold | below the threshold | below the threshold | below the threshold | below the threshold | 4.06 | below the threshold | below the threshold | pKd (LIN7A, O14910): below the threshold; pKd (LIN7B, Q9HAP6): below the threshold; pKd (Inadl_1, Q8NI35): below the threshold; pKd (DLG5_1, Q8TDM6): below the threshold; pKd (GORASP2, Q9H8Y8): 3.73; pKd (GOPC, Q9HD26): 3.72; pKd (NHERF2_2, Q15599): below the threshold; pKd (MAST2, Q6P0Q8): 4.7
3 | B3 | below the threshold | below the threshold | below the threshold | 3.78 | below the threshold | 3.48 | below the threshold | below the threshold | below the threshold | below the threshold | 4.15 | below the threshold | below the threshold | below the threshold | below the threshold | below the threshold | below the threshold | below the threshold | below the threshold | below the threshold | pKd (LIN7A, O14910): below the threshold; pKd (LIN7B, Q9HAP6): 3.85; pKd (Inadl_1, Q8NI35): below the threshold; pKd (DLG5_1, Q8TDM6): below the threshold; pKd (GORASP2, Q9H8Y8): below the threshold; pKd (GOPC, Q9HD26): below the threshold; pKd (NHERF2_2, Q15599): below the threshold; pKd (MAST2, Q6P0Q8): 4.74

Reference: article PMC9482650, “Quantitative fragmentomics allow affinity mapping of interactomes” (Nature Communications, 2022)
